Data published in paper PMC12474881.

Columns and labels:
CaMKIIδ-0 F368A (human) = assay: mass photometry
[1] = target: CaMKIIδ-0 F368A/L405M (human); assay: mass photometry
[2] = target: CaMKIIδ-0 F368A/Q407A (human); assay: mass photometry
[3] = target: CaMKIIα with exon 14 only as the variable linker (human)
[4] = target: CaMKIIα with exon 18 only as the variable linker (human)
[5] = target: CaMKIIδ with exon 14 only as the variable linker (human)
[6] = target: CaMKIIβ with exon 14 only as the variable linker (human)
[7] = target: CaMKIIα mutants with acidic exon 18 positioned proximal to the regulatory segment
[8] = target: CaMKIIα with basified exon 18 (human)
[9] = target: CaMKIIα with acidic exon 14 (all basic residues of exon 14 mutated to acidic residues) (human)
[10] = target: CaMKIIα with the sequence of exon 18 reversed (human)
[11] = target: CaMKIIα exon 18 with all Ser and Thr residues in exon 18 mutated to Ala (human)

CaMKIIδ-0 F368A (enzyme)
percent of the total population as dimers at 25 nM (CaMKIIδ-0 F368A (human)): 20%
percent of the total population as dimers at 100 nM (CaMKIIδ-0 F368A (human)): 10%
percent of the total population as tetramers at 100 nM (CaMKIIδ-0 F368A (human)): 5%
stoichiometry N (CaMKIIδ-0 F368A (human)): 14

CaMKIIδ-0 F368A/L405M (enzyme)
percent of the population as tetradecameric holoenzyme at 100 nM [1]: 5%
stoichiometry N [1]: 2

CaMKIIδ-0 F368A/Q407A (enzyme)
percent of the population as tetradecameric holoenzyme at 100 nM [2]: 5%
stoichiometry N [2]: 2

Calmodulin (Gallus gallus) (from UniProt P62149 1-149) (natural protein)
EC50 of Ca2+/CaM for kinase activity against syntide-2 (coupled kinase assay) [3]: 17 nM
EC50 of Ca2+/CaM for kinase activity against syntide-2 (coupled kinase assay) [4]: 193 nM
EC50 of Ca2+/CaM for kinase activity against syntide-2 (coupled kinase assay) [5]: 20 nM
EC50 of Ca2+/CaM for kinase activity against syntide-2 (coupled kinase assay) [6]: 20 nM
EC50 of Ca2+/CaM for kinase activity (coupled kinase assay) [7]: 70 nM
EC50 of Ca2+/CaM for kinase activity against syntide-2 (coupled kinase assay) [8]: 34 nM
EC50 of Ca2+/CaM for kinase activity against syntide-2 (coupled kinase assay) [9]: 102 nM
EC50 of Ca2+/CaM for kinase activity against syntide-2 (coupled kinase assay) [10]: 41 nM
EC50 of Ca2+/CaM for kinase activity (coupled kinase assay) [11]: 350 nM
